For series [1], the target named is T1, Ku70/Ku80 wild type;DNA-PKcs (human?;human (HeLa cells), UniProt P12956;P13010;P78527 1-609;1-732;1-4128, |). Kind of series: ELISA; ELISA: 20 mM HEPES pH 7.5, 75 mM KCl, 10% glycerol, 0.005% Triton X-100, 2 mM DTT, room temperature, 1 h, 2 pmol DNA, 424 ng DNA-PKcs; EMSA: 20 ul, 500 fmol DNA, buffer as in earlier papers. Particulars: protein: recombinant;native; tags: His (Ku70);; copies: 1;1;1; label: 5' biotin on one end; blunt. For orientation: An ELISA detects its analyte on a solid surface through an enzyme-linked reagent.

The target in series [2] is T2, Ku70/Ku80 wild type (UniProt P12956;P13010 1-609;1-732). Kind of series: EMSA; 1 and 2 Ku per DNA, preference for 2; ELISA: 20 mM HEPES pH 7.5, 75 mM KCl, 10% glycerol, 0.005% Triton X-100, 2 mM DTT, room temperature, 1 h, 2 pmol DNA, 424 ng DNA-PKcs; EMSA: 20 ul, 500 fmol DNA, buffer as in earlier papers. Particulars: protein: recombinant; tags: His (Ku70); copies: 1;1; blunt. (In EMSA bound probe runs differently from free probe, usually more slowly.)
T2 sequence (P12956 whole entry, chain 1 of 2): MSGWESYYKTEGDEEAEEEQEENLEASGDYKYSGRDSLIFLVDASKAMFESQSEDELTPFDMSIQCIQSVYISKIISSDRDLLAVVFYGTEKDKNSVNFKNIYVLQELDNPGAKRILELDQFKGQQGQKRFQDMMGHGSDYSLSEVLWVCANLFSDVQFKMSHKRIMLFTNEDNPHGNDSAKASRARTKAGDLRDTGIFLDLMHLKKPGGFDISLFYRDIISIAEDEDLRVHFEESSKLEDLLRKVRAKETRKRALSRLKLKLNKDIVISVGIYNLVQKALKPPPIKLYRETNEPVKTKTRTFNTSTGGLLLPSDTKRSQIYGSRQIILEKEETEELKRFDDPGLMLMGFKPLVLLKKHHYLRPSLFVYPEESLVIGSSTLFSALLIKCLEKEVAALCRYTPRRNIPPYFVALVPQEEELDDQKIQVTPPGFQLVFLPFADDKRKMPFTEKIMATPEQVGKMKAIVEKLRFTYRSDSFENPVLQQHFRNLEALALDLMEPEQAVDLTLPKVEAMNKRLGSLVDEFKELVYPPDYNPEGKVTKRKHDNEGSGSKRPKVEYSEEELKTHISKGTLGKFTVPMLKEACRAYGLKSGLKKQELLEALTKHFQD
T2 sequence (P13010 whole entry, chain 2 of 2): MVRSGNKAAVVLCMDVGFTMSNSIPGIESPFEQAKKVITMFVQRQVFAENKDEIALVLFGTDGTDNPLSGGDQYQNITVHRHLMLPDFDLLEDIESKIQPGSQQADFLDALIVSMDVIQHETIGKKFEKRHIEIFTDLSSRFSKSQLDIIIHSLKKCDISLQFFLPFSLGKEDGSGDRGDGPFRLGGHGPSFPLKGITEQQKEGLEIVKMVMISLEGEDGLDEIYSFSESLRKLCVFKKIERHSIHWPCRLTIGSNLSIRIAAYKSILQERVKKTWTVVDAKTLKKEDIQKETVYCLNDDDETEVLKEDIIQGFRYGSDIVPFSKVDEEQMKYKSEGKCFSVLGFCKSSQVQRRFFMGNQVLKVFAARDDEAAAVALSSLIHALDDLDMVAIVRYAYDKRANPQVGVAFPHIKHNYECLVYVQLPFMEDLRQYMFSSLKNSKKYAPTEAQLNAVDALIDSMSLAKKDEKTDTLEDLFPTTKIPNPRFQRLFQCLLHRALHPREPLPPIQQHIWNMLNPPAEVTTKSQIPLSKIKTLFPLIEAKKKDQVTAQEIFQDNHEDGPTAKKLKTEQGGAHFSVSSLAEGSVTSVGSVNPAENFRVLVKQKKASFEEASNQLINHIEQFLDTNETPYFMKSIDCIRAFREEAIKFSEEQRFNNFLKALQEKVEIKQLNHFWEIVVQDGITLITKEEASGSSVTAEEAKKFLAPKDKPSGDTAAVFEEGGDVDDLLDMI

In series [3] the target is T1, Ku70/Ku80 wild type;DNA-PKcs. Description: ELISA; more than double the 30bp and 400bp recruitment (Fig 4C); ELISA: 20 mM HEPES pH 7.5, 75 mM KCl, 10% glycerol, 0.005% Triton X-100, 2 mM DTT, room temperature, 1 h, 2 pmol DNA, 424 ng DNA-PKcs; EMSA: 20 ul, 500 fmol DNA, buffer as in earlier papers. Conditions: protein: recombinant;native; tags: His (Ku70);; copies: 1;1;1; label: 5' biotin on one end; blunt.

The target of series [4] is T2, Ku70/Ku80 wild type. Description: EMSA; primarily 1:1 Ku:DNA; ELISA: 20 mM HEPES pH 7.5, 75 mM KCl, 10% glycerol, 0.005% Triton X-100, 2 mM DTT, room temperature, 1 h, 2 pmol DNA, 424 ng DNA-PKcs; EMSA: 20 ul, 500 fmol DNA, buffer as in earlier papers. Conditions: protein: recombinant; tags: His (Ku70); copies: 1;1; blunt.

B1: 30bp blunt, biotinylated (dsDNA)
DNA 1: CACTTCCAACAGAGGTGACACTGCCTTCAG
DNA 2: CTGAAGGCAGTGTCACCTCTGTTGGAAGTG
For B1, the binding signal in series [1] was > 4 fold vs DNA-PKcs without Ku.

B2: 60bp blunt (EMSA) (dsDNA)
DNA 1: CTTGACCAGTAGTCTAGCACGTGACGATTGCATGCGTCAAGTAAGATGCAGATACTTAAC
DNA 2: GTTAAGTATCTGCATCTTACTTGACGCATGCAATCGTCACGTGCTAGACTACTGGTCAAG
In the case of B2, the binding result in series [2] was “binds”.

B3: 60bp blunt, biotinylated (dsDNA)
DNA 1: B2 DNA 1
DNA 2: B2 DNA 2
For the molecule B3, in series [3], the binding signal was > 4 fold vs DNA-PKcs without Ku.

B4: 30bp blunt (EMSA) (dsDNA)
DNA 1: B1 DNA 1
DNA 2: B1 DNA 2
Consider B4, for which the binding result in series [4] was “binds”.
